For twelve molecules, EC50 and IC50 results are on record in patent publication US20240301031A1 (JIANGSU HENGRUI PHARMACEUTICALS, published 2024).

B1: TACI-9-1Fc (Fc fusion)
chain: STSCRKEQGKFYDHLLRDCISCASICGQHPKQCAYFCENKLDKTHTCPPCPAPEAEGAPSVFLFPPKPKDTLMISRTPEVTCVVVDVSHEDPEVKFNWYVDGVEVHNAKTKPREEQYNSTYRVVSVLTVLHQDWLNGKEYKCKVSNKALPSSIEKTISKAKGQPREPQVYTLPPSRDELTKNQVSLTCLVKGFYPSDIAVEWESNGQPENNYKTTPPVLDSDGSFFLYSKLTVDKSRWQQGNVFSCSVMHEALHNHYTQKSLSLSPGK
notes: two identical polypeptides
B2: TACI-9-3Fc (Fc fusion)
chain: SLSCREEQGKFYDHLLRDCISCASICGQHPKQCAYFCENKLDKTHTCPPCPAPEAEGAPSVFLFPPKPKDTLMISRTPEVTCVVVDVSHEDPEVKFNWYVDGVEVHNAKTKPREEQYNSTYRVVSVLTVLHQDWLNGKEYKCKVSNKALPSSIEKTISKAKGQPREPQVYTLPPSRDELTKNQVSLTCLVKGFYPSDIAVEWESNGQPENNYKTTPPVLDSDGSFFLYSKLTVDKSRWQQGNVFSCSVMHEALHNHYTQKSLSLSPGK
notes: two identical polypeptides
B3: TACI-9-4Fc (Fc fusion)
chain: SLSCRQEQGKFYDHLLRDCISCASICGQHPKQCAYFCENKLDKTHTCPPCPAPEAEGAPSVFLFPPKPKDTLMISRTPEVTCVVVDVSHEDPEVKFNWYVDGVEVHNAKTKPREEQYNSTYRVVSVLTVLHQDWLNGKEYKCKVSNKALPSSIEKTISKAKGQPREPQVYTLPPSRDELTKNQVSLTCLVKGFYPSDIAVEWESNGQPENNYKTTPPVLDSDGSFFLYSKLTVDKSRWQQGNVFSCSVMHEALHNHYTQKSLSLSPGK
notes: two identical polypeptides
B4: TACI-9-2Fc (Fc fusion)
chain: SLSCSKEQGKFYDHLLRDCISCASICGQHPKQCAYFCENKLDKTHTCPPCPAPEAEGAPSVFLFPPKPKDTLMISRTPEVTCVVVDVSHEDPEVKFNWYVDGVEVHNAKTKPREEQYNSTYRVVSVLTVLHQDWLNGKEYKCKVSNKALPSSIEKTISKAKGQPREPQVYTLPPSRDELTKNQVSLTCLVKGFYPSDIAVEWESNGQPENNYKTTPPVLDSDGSFFLYSKLTVDKSRWQQGNVFSCSVMHEALHNHYTQKSLSLSPGK
notes: two identical polypeptides
B5: TACI-4 Fc (Fc fusion)
chain: GGRSRVDQEERFPQGLWTGVAMRSCPEEQYWDPLLGTCMSCKTICNHQSQRTCAAFCRSLSCRKEQGKFYDHLLRDCISCASICGQHPKQCAYFCENKLRSPVNLPPELRKQRSGEVENNSDNSGKYQGLEHRGSEASPALPGLKLSADQVALVYSDKTHTCPPCPAPEAEGAPSVFLFPPKPKDTLMISRTPEVTCVVVDVSHEDPEVKFNWYVDGVEVHNAKTKPREEQYNSTYRVVSVLTVLHQDWLNGKEYKCKVSNKALPSSIEKTISKAKGQPREPQVYTLPPSRDELTKNQVSLTCLVKGFYPSDIAVEWESNGQPENNYKTTPPVLDSDGSFFLYSKLTVDKSRWQQGNVFSCSVMHEALHNHYTQKSLSLSPGK
notes: two identical polypeptides
B6: TACI-3 Fc (Fc fusion)
chain: SGLGRSRKGGKSRVDQEERFPQGLWTGVAMRSCPEEQYWDPLLGTCMSCKTICNHQSQRTCAAFCRSLSCRKEQGKFYDHLLRDCISCASICGQHPKQCAYFCENKLRSPVNLPPELRKQRSGEVEDKTHTCPPCPAPEAEGAPSVFLFPPKPKDTLMISRTPEVTCVVVDVSHEDPEVKFNWYVDGVEVHNAKTKPREEQYNSTYRVVSVLTVLHQDWLNGKEYKCKVSNKALPSSIEKTISKAKGQPREPQVYTLPPSRDELTKNQVSLTCLVKGFYPSDIAVEWESNGQPENNYKTTPPVLDSDGSFFLYSKLTVDKSRWQQGNVFSCSVMHEALHNHYTQKSLSLSPGK
notes: two identical polypeptides
B7: TACI-7 Fc (Fc fusion)
chain: FPQGLWTGVAMRSCPEEQYWDPLLGTCMSCKTICNHQSQRTCAAFCRSLSCRKEQGKFYDHLLRDCISCASICGQHPKQCAYFCENKLRSPVNLPPDKTHTCPPCPAPEAEGAPSVFLFPPKPKDTLMISRTPEVTCVVVDVSHEDPEVKFNWYVDGVEVHNAKTKPREEQYNSTYRVVSVLTVLHQDWLNGKEYKCKVSNKALPSSIEKTISKAKGQPREPQVYTLPPSRDELTKNQVSLTCLVKGFYPSDIAVEWESNGQPENNYKTTPPVLDSDGSFFLYSKLTVDKSRWQQGNVFSCSVMHEALHNHYTQKSLSLSPGK
notes: two identical polypeptides
B8: TACI-6 Fc (Fc fusion)
chain: GGRSRVDQEERFPQGLWTGVAMRSCPEEQYWDPLLGTCMSCKTICNHQSQRTCAAFCRSLSCRKEQGKFYDHLLRDCISCASICGQHPKQCAYFCENKLRSPVNLPPELRKQRSGEVEDKTHTCPPCPAPEAEGAPSVFLFPPKPKDTLMISRTPEVTCVVVDVSHEDPEVKFNWYVDGVEVHNAKTKPREEQYNSTYRVVSVLTVLHQDWLNGKEYKCKVSNKALPSSIEKTISKAKGQPREPQVYTLPPSRDELTKNQVSLTCLVKGFYPSDIAVEWESNGQPENNYKTTPPVLDSDGSFFLYSKLTVDKSRWQQGNVFSCSVMHEALHNHYTQKSLSLSPGK
notes: two identical polypeptides
B9: TACI-8 Fc (Fc fusion)
chain: SLSCRKEQGKFYDHLLRDCISCASICGQHPKQCAYFCENKLRSPVNLPPELRKQRSGEVENNSDNSGKYQGLEHRGSEASPALPGLKLSADQVALVYSDKTHTCPPCPAPEAEGAPSVFLFPPKPKDTLMISRTPEVTCVVVDVSHEDPEVKFNWYVDGVEVHNAKTKPREEQYNSTYRVVSVLTVLHQDWLNGKEYKCKVSNKALPSSIEKTISKAKGQPREPQVYTLPPSRDELTKNQVSLTCLVKGFYPSDIAVEWESNGQPENNYKTTPPVLDSDGSFFLYSKLTVDKSRWQQGNVFSCSVMHEALHNHYTQKSLSLSPGK
notes: two identical polypeptides
B10: TACI-1 Fc (Fc fusion)
chain: SGLGRSRKGGKSRVDQEERFPQGLWTGVAMRSCPEEQYWDPLLGTCMSCKTICNHQSQRTCAAFCRSLSCRKEQGKFYDHLLRDCISCASICGQHPKQCAYFCENKLRSPVNLPPELRKQRSGEVEQNSDNSGKYQGLEHRGSEASPALPGLKLSADQVALVYSDKTHTCPPCPAPEAEGAPSVFLFPPKPKDTLMISRTPEVTCVVVDVSHEDPEVKFNWYVDGVEVHNAKTKPREEQYNSTYRVVSVLTVLHQDWLNGKEYKCKVSNKALPSSIEKTISKAKGQPREPQVYTLPPSRDELTKNQVSLTCLVKGFYPSDIAVEWESNGQPENNYKTTPPVLDSDGSFFLYSKLTVDKSRWQQGNVFSCSVMHEALHNHYTQKSLSLSPGK
notes: two identical polypeptides
B11: TACI-2 Fc (Fc fusion)
chain: SGLGRSRKGGKSRVDQEERFPQGLWTGVAMRSCPEEQYWDPLLGTCMSCKTICNHQSQRTCAAFCRSLSCRKEQGKFYDHLLRDCISCASICGQHPKQCAYFCENKLRSPVNLPPELRKQRSGEVENNSDNSGDKTHTCPPCPAPEAEGAPSVFLFPPKPKDTLMISRTPEVTCVVVDVSHEDPEVKFNWYVDGVEVHNAKTKPREEQYNSTYRVVSVLTVLHQDWLNGKEYKCKVSNKALPSSIEKTISKAKGQPREPQVYTLPPSRDELTKNQVSLTCLVKGFYPSDIAVEWESNGQPENNYKTTPPVLDSDGSFFLYSKLTVDKSRWQQGNVFSCSVMHEALHNHYTQKSLSLSPGK
notes: two identical polypeptides
B12: TACI-5 Fc (Fc fusion)
chain: GGRSRVDQEERFPQGLWTGVAMRSCPEEQYWDPLLGTCMSCKTICNHQSQRTCAAFCRSLSCRKEQGKFYDHLLRDCISCASICGQHPKQCAYFCENKLRSPVNLPPELRKQRSGEVENNSDNSGDKTHTCPPCPAPEAEGAPSVFLFPPKPKDTLMISRTPEVTCVVVDVSHEDPEVKFNWYVDGVEVHNAKTKPREEQYNSTYRVVSVLTVLHQDWLNGKEYKCKVSNKALPSSIEKTISKAKGQPREPQVYTLPPSRDELTKNQVSLTCLVKGFYPSDIAVEWESNGQPENNYKTTPPVLDSDGSFFLYSKLTVDKSRWQQGNVFSCSVMHEALHNHYTQKSLSLSPGK
notes: two identical polypeptides

The target in one experiment is T1, human BAFF (10056-HNCH, Sino biological) (human, UniProt Q9Y275 134-285).
T1 construct: Bought protein
The experiment in a line: ELISA, BAFF coated, fusion protein titrated. As for the experimental part: The binding activity of the antibodies or fusion proteins for BAFF, APRIL, and IL-12/23 p40 was assayed by the ELISA method (coating an antigen protein). The specific procedures were as follows:
A BAFF (Sino biological, 10056-HNCH), APRIL (R&D Systems, 5860-AP-010/CF), or IL-12/23 p40 (Sino biological, 10052-H08H) protein was diluted to 1 μg/mL with a PBS (BasalMedia, B320) buffer at pH 7.4, and added to a 96-well microplate (Corning, 3590) at 100 μL/well. The plate was incubated at 4° C. overnight. After the liquid was discarded, 300 μL of 5% skim milk (BD, 232100) diluted with PBS was added to each well for blocking, and the plate was incubated at 37° C. for 2 h. After the blocking was completed, the blocking solution was discarded, and the plate was washed 3 times with a PBST buffer (PBS at pH 7.4 containing 0.1% tween-20). 100 μL of test antibody or fusion protein solution diluted in a gradient was added to each well, and the plate was incubated at 37° C. for 1 h. After the incubation was completed, the plate was washed 3 times with PBST. […] The plate was washed 3 times with PBST. 100 μL of TMB chromogenic substrate (KPL, 5120-0077) was added to each well, and the plate was incubated at room temperature for 10-15 min. The reaction was stopped by adding 50 μL of 1 M H₂SO₄ to each well. The plate was read for absorbance values at 450 nm on a microplate reader, the binding curves of the antibodies to an antigen were fitted with software, and the EC₅₀ values were calculated.
Background: ELISA stands for enzyme-linked immunosorbent assay.
The EC50 is the concentration needed to bring the measured effect to its halfway point. Lower therefore signals a more potent agent. As to B1, the EC50 turned out to be 0.382 nM. Turning to B2, the EC50 is 0.265 nM. The same measure, in the same setting: the same measure for B3: 0.469 nM; for B4: 0.279 nM.

Another experiment addresses T1, human BAFF (10056-HNCH, Sino biological). The experiment in a line: competition ELISA: biotin-labeled BAFF to coated BAFF-R. Here is the method:
The blocking activity of the antibodies and the fusion proteins for receptors and ligands such as BAFF/BAFF-R, BAFF/BCMA, BAFF/TACI, APRIL/BCMA, APRIL/TACI, and p40/IL-12R1 was assayed by the ELISA method. The specific procedures were as follows:
A receptor protein was diluted to 2 μg/mL with PBS at pH 7.4 (BasalMedia, B320) and added to a 96-well microplate (Corning, 3590) at 100 μL/well. The plate was incubated at 4° C. overnight. After the liquid was discarded, 200 μL of 1% Casein blocking solution (Thermo, 37528) was added to each well for blocking, and the plate was incubated at 37° C. for 2 h. After the blocking was completed, the blocking solution was discarded, and the plate was washed 3 times with a PBST buffer (PBS at pH 7.4 containing 0.1% tween-20) for later use. A biotin-labeled ligand protein at a fixed concentration was mixed with the antibody or fusion protein diluted in gradient, pre-incubated at 37° C. for 30 min, and added to a blocked microplate. The plate was incubated at 37° C. for 1.5 h. After the incubation was completed, the plate was washed 3 times with PBST. 100 μL of streptavidin-HRP (Invitrogen, 434323, diluted at a ratio of 1:4000) was added to each well, and the plate was incubated at 37° C. for 1 h. The supernatant was removed, and the plate was washed 3 times with PBST. 100 μL of TMB chromogenic substrate (KPL, 5120-0077) was added to each well, and the plate was incubated at room temperature for 10-15 min. The reaction was stopped by adding 50 μL of 1 M H₂SO₄ to each well. The plate was read for absorbance values at 450 nm on a microplate reader, the curves for the inhibition of the binding of the ligands to the receptors were fitted with software, and the IC₅₀ values were calculated.
A word on the IC50: it is the point on the concentration scale where inhibition reaches its midpoint. On to B5, for which the IC50 was 33.5 nM. Consider B6, for which the IC50 worked out at 826 nM. Take B7: the IC50 was determined as 27.9 nM. Turning to B8, the 50% inhibitory concentration (IC50) stood at 18.5 nM. Consider B9, for which the IC50 came to 22.5 nM.

Turning to B10, the IC50 was 44.7 nM. Turning to B11, the IC50 was determined as 42.9 nM. On to B12, for which the IC50 was 25.4 nM.
